Results taken from patent US20230176070A1 (published 2023).

Target: glutathione S-transferase (UniProt P08515 1-218 = GST)
Assay: SPR

Sequence of glutathione S-transferase (P08515 whole entry): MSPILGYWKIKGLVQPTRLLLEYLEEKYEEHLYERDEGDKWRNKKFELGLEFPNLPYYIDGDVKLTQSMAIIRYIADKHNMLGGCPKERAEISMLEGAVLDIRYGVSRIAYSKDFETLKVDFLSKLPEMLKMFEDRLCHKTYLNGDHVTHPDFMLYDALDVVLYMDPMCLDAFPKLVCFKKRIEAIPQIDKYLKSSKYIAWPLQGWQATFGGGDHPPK

B1: G47 (VHH)
VHH: QVQLVESGGGLVQAGGSLRLSCAASERIFSNYAMGWFRQAPGKEREFVASIRGSGSQTSYADSVKGRFTISRDGAKDTVDLQMNSLKPEDTAVYYCSAKKYCGSTYNRAEGYDYWGQGTQVTVSS
B1 was tested, and the Kd was 17.6 nM.
